Experimental data published in paper PMC6510891, “Functional duplication of Rap1 in methylotrophic yeasts”.

What was measured:
[1] = target: T1, HpRap1A (Hansenula polymorpha DL-1, UniProt W1Q7Z6 1-613); assay: competition SPR; score - vs VIIrAbs surface; SPR: 10 mM HEPES-NaOH pH 7.5, 150 mM NaCl, 0.5 mM DTT, 0.05% Tween 20, 1 mg/ml BSA, 0.02 mg/ml salmon sperm DNA; competition 2 nM protein with 20 or 200 nM competitor. EMSA: 20 mM HEPES-NaOH pH 7.5, 50 mM NaCl, 0.2 mg/ml BSA, 5% glycerol, 0.1 mg/ml salmon sperm DNA, room temperature; conditions: protein: recombinant; blunt
T1 sequence: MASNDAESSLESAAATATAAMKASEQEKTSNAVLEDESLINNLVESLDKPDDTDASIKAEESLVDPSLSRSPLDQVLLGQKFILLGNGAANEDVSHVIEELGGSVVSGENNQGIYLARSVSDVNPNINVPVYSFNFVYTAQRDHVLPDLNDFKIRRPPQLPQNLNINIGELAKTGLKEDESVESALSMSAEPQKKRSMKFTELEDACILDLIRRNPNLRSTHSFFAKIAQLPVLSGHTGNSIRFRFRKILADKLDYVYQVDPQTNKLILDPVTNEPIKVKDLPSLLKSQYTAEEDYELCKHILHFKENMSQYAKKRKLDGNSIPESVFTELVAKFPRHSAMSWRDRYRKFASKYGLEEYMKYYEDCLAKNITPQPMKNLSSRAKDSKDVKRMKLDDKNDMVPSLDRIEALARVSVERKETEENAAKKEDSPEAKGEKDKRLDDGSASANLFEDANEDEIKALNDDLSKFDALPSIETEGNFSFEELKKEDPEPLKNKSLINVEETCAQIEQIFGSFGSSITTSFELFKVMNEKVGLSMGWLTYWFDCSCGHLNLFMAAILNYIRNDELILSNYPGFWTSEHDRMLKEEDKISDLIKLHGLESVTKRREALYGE

[2] = target: T2, HpRap1B (Hansenula polymorpha DL-1, UniProt W1QDN2 1-576); assay: competition SPR; score +++ vs PICKU surface; SPR: 10 mM HEPES-NaOH pH 7.5, 150 mM NaCl, 0.5 mM DTT, 0.05% Tween 20, 1 mg/ml BSA, 0.02 mg/ml salmon sperm DNA; competition 2 nM protein with 20 or 200 nM competitor. EMSA: 20 mM HEPES-NaOH pH 7.5, 50 mM NaCl, 0.2 mg/ml BSA, 5% glycerol, 0.1 mg/ml salmon sperm DNA, room temperature; conditions: protein: recombinant; blunt
T2 sequence: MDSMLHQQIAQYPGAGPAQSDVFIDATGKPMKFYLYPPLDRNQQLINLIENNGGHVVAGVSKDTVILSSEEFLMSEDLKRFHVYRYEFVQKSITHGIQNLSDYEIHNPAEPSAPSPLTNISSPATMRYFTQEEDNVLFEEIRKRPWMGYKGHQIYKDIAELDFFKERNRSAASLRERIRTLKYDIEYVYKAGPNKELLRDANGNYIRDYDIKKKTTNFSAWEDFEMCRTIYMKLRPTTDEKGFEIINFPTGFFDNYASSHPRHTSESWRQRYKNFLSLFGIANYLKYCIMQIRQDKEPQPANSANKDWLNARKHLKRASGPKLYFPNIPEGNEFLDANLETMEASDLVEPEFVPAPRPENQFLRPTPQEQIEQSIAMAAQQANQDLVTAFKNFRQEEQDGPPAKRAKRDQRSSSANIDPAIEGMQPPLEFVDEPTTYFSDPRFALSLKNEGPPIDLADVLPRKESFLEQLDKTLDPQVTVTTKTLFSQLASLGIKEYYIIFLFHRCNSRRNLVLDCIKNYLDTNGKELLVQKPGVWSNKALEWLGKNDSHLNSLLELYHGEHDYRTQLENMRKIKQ

[3] = target: T2, HpRap1B; assay: SPR; kinetic fit; equilibrium Kd 1.9±0.1; SPR: 10 mM HEPES-NaOH pH 7.5, 150 mM NaCl, 0.5 mM DTT, 0.05% Tween 20, 1 mg/ml BSA, 0.02 mg/ml salmon sperm DNA; competition 2 nM protein with 20 or 200 nM competitor. EMSA: 20 mM HEPES-NaOH pH 7.5, 50 mM NaCl, 0.2 mg/ml BSA, 5% glycerol, 0.1 mg/ml salmon sperm DNA, room temperature; conditions: protein: recombinant; 3' overhang 20 nt on strand 2
[4] = target: T1, HpRap1A; assay: SPR; kinetic fit; equilibrium Kd 1.8±0.5; SPR: 10 mM HEPES-NaOH pH 7.5, 150 mM NaCl, 0.5 mM DTT, 0.05% Tween 20, 1 mg/ml BSA, 0.02 mg/ml salmon sperm DNA; competition 2 nM protein with 20 or 200 nM competitor. EMSA: 20 mM HEPES-NaOH pH 7.5, 50 mM NaCl, 0.2 mg/ml BSA, 5% glycerol, 0.1 mg/ml salmon sperm DNA, room temperature; conditions: protein: recombinant; 3' overhang 20 nt on strand 2
[5] = target: T2, HpRap1B; assay: SPR; kinetic fit; equilibrium Kd 65±2; SPR: 10 mM HEPES-NaOH pH 7.5, 150 mM NaCl, 0.5 mM DTT, 0.05% Tween 20, 1 mg/ml BSA, 0.02 mg/ml salmon sperm DNA; competition 2 nM protein with 20 or 200 nM competitor. EMSA: 20 mM HEPES-NaOH pH 7.5, 50 mM NaCl, 0.2 mg/ml BSA, 5% glycerol, 0.1 mg/ml salmon sperm DNA, room temperature; conditions: protein: recombinant; 3' overhang 20 nt on strand 2
[6] = target: T1, HpRap1A; assay: SPR; kinetic fit; SPR: 10 mM HEPES-NaOH pH 7.5, 150 mM NaCl, 0.5 mM DTT, 0.05% Tween 20, 1 mg/ml BSA, 0.02 mg/ml salmon sperm DNA; competition 2 nM protein with 20 or 200 nM competitor. EMSA: 20 mM HEPES-NaOH pH 7.5, 50 mM NaCl, 0.2 mg/ml BSA, 5% glycerol, 0.1 mg/ml salmon sperm DNA, room temperature; conditions: protein: recombinant; 3' overhang 20 nt on strand 2
[7] = target: T1, HpRap1A; assay: SPR; kinetic fit; equilibrium Kd 38±15; SPR: 10 mM HEPES-NaOH pH 7.5, 150 mM NaCl, 0.5 mM DTT, 0.05% Tween 20, 1 mg/ml BSA, 0.02 mg/ml salmon sperm DNA; competition 2 nM protein with 20 or 200 nM competitor. EMSA: 20 mM HEPES-NaOH pH 7.5, 50 mM NaCl, 0.2 mg/ml BSA, 5% glycerol, 0.1 mg/ml salmon sperm DNA, room temperature; conditions: protein: recombinant; 3' overhang 20 nt on strand 2
[8] = target: T1, HpRap1A; assay: SPR; kinetic fit; equilibrium Kd 12±3; SPR: 10 mM HEPES-NaOH pH 7.5, 150 mM NaCl, 0.5 mM DTT, 0.05% Tween 20, 1 mg/ml BSA, 0.02 mg/ml salmon sperm DNA; competition 2 nM protein with 20 or 200 nM competitor. EMSA: 20 mM HEPES-NaOH pH 7.5, 50 mM NaCl, 0.2 mg/ml BSA, 5% glycerol, 0.1 mg/ml salmon sperm DNA, room temperature; conditions: protein: recombinant; 3' overhang 20 nt on strand 2
[9] = target: T2, HpRap1B; assay: SPR; SPR: 10 mM HEPES-NaOH pH 7.5, 150 mM NaCl, 0.5 mM DTT, 0.05% Tween 20, 1 mg/ml BSA, 0.02 mg/ml salmon sperm DNA; competition 2 nM protein with 20 or 200 nM competitor. EMSA: 20 mM HEPES-NaOH pH 7.5, 50 mM NaCl, 0.2 mg/ml BSA, 5% glycerol, 0.1 mg/ml salmon sperm DNA, room temperature; conditions: protein: recombinant; 3' overhang 20 nt on strand 2
[10] = target: T2, HpRap1B; assay: SPR; kinetic fit; equilibrium Kd 11±1; SPR: 10 mM HEPES-NaOH pH 7.5, 150 mM NaCl, 0.5 mM DTT, 0.05% Tween 20, 1 mg/ml BSA, 0.02 mg/ml salmon sperm DNA; competition 2 nM protein with 20 or 200 nM competitor. EMSA: 20 mM HEPES-NaOH pH 7.5, 50 mM NaCl, 0.2 mg/ml BSA, 5% glycerol, 0.1 mg/ml salmon sperm DNA, room temperature; conditions: protein: recombinant; 3' overhang 20 nt on strand 2
[11] = target: T1, HpRap1A; assay: SPR; SPR: 10 mM HEPES-NaOH pH 7.5, 150 mM NaCl, 0.5 mM DTT, 0.05% Tween 20, 1 mg/ml BSA, 0.02 mg/ml salmon sperm DNA; competition 2 nM protein with 20 or 200 nM competitor. EMSA: 20 mM HEPES-NaOH pH 7.5, 50 mM NaCl, 0.2 mg/ml BSA, 5% glycerol, 0.1 mg/ml salmon sperm DNA, room temperature; conditions: protein: recombinant; 3' overhang 20 nt on strand 2
[12] = target: T2, HpRap1B; assay: SPR; kinetic fit; equilibrium Kd 1.7±0.2; SPR: 10 mM HEPES-NaOH pH 7.5, 150 mM NaCl, 0.5 mM DTT, 0.05% Tween 20, 1 mg/ml BSA, 0.02 mg/ml salmon sperm DNA; competition 2 nM protein with 20 or 200 nM competitor. EMSA: 20 mM HEPES-NaOH pH 7.5, 50 mM NaCl, 0.2 mg/ml BSA, 5% glycerol, 0.1 mg/ml salmon sperm DNA, room temperature; conditions: protein: recombinant; 3' overhang 20 nt on strand 2
[13] = target: T2, HpRap1B; assay: EMSA; up to 250 nM protein, 50 nM DNA; SPR: 10 mM HEPES-NaOH pH 7.5, 150 mM NaCl, 0.5 mM DTT, 0.05% Tween 20, 1 mg/ml BSA, 0.02 mg/ml salmon sperm DNA; competition 2 nM protein with 20 or 200 nM competitor. EMSA: 20 mM HEPES-NaOH pH 7.5, 50 mM NaCl, 0.2 mg/ml BSA, 5% glycerol, 0.1 mg/ml salmon sperm DNA, room temperature; conditions: protein: recombinant; label: 5' FAM on strand 1; blunt
[14] = target: T1, HpRap1A; assay: as above; conditions: protein: recombinant; label: 5' FAM on strand 1; blunt

B1: PICKU (competitor) (dsDNA)
DNA 1: TGAACTAGGAGCGAGGTGTGTTAC
DNA 2: GTAACACACCTCGCTCCTAGTTCA
binding result [1]: no binding | binding result [2]: binds

B2: RPL5a (dsDNA)
DNA 1: CTTGTGTGGTGCAGGGGTGGCAG
DNA 2: CTGCCACCCCTGCACCACACAAGCCTCTACGTCCTCCTGCTCC
Kd [3]: 2 nM | Kd [4]: 1.4 ± 0.3 nM

B3: VIIrAbs (SPR) (dsDNA)
DNA 1: GGCAGGCGGTGTAGGGATGCGGC
DNA 2: GCCGCATCCCTACACCGCCTGCCCCTCTACGTCCTCCTGCTCC
Kd [5]: 64 ± 2 nM | Kd [6]: 0.28 ± 0.09 nM

B4: SACCE (SPR) (dsDNA)
DNA 1: GTGTGTGGGTGTGTGGGTGTGTG
DNA 2: CACACACCCACACACCCACACACCCTCTACGTCCTCCTGCTCC
Kd [7]: 39 ± 15 nM

B5: RPS0a (dsDNA)
DNA 1: AGAGGGCTGTGCACGGATGCTAT
DNA 2: ATAGCATCCGTGCACAGCCCTCTCCTCTACGTCCTCCTGCTCC
Kd [8]: 10 ± 4 nM | binding result [9]: no binding

B6: HANPO2 (SPR) (dsDNA)
DNA 1: GGGTGGCGGGGTGGCG
DNA 2: CGCCACCCCGCCACCCCCTCTACGTCCTCCTGCTCC
Kd [10]: 12 ± 1 nM | binding result [11]: no binding

B7: RPS0b (dsDNA)
DNA 1: ATTTCTTGGTGCGAGGGGGCTCT
DNA 2: AGAGCCCCCTCGCACCAAGAAATCCTCTACGTCCTCCTGCTCC
Kd [12]: 1.5 ± 0.4 nM | binding result [11]: no binding

B8: FAM-HANPO2 (dsDNA)
DNA 1: GGGTGGCGGGGTGGCG
DNA 2: CGCCACCCCGCCACCC
binding result [13]: binds | binding result [14]: no binding
